Numbered stars: 1 amine (or outer) side, 2 acyl side, 3 side chain; on linkers, the order of the positions; unused ones are H or OH. Bridge positions count the residues as written; N and C are the ends. Square brackets hold non-standard residues; d marks the D form. * marks the point of attachment. C20 diacid = O=C(O)CCCCCCCCCCCCCCCCCCC(=O)*; γGlu = O=C(O)[C@H](CCC(=O)[*:2])N[*:1]; 4Pal = N[C@@H](Cc1ccncc1)C(=O)O

One test deals with T1, human NPRA (human, UniProt P16066 33-1061).
T1 sequence (looked up): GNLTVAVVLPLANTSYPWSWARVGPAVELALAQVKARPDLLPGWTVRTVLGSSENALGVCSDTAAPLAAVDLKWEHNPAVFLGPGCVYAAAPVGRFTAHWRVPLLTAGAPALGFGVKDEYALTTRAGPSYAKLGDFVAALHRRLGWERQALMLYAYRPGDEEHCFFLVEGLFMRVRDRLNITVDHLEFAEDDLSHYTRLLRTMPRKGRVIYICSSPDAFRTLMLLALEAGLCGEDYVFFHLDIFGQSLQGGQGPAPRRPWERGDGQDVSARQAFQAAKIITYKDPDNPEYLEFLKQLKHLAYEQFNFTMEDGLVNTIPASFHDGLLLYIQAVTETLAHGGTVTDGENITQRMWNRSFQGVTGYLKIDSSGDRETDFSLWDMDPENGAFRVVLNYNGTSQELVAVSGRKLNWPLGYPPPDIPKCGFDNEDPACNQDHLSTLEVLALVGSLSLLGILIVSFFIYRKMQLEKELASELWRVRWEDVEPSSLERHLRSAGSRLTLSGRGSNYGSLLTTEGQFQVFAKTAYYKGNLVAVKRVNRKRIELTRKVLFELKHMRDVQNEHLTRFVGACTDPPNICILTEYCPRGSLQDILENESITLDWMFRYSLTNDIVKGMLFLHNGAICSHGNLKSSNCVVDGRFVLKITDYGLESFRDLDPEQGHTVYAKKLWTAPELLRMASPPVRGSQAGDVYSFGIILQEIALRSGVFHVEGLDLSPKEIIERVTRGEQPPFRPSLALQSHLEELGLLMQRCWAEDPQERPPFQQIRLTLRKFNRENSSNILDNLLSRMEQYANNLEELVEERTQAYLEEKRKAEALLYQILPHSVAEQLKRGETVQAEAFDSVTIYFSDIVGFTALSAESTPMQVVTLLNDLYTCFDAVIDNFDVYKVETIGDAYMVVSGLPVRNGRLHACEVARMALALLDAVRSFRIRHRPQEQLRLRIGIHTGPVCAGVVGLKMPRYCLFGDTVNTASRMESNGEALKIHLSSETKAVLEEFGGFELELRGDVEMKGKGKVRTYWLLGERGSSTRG
In words: cell-based or functional assay.

The next test has as its target T2, rat NPRA (rat, UniProt P18910 29-1057).
T2 sequence (looked up): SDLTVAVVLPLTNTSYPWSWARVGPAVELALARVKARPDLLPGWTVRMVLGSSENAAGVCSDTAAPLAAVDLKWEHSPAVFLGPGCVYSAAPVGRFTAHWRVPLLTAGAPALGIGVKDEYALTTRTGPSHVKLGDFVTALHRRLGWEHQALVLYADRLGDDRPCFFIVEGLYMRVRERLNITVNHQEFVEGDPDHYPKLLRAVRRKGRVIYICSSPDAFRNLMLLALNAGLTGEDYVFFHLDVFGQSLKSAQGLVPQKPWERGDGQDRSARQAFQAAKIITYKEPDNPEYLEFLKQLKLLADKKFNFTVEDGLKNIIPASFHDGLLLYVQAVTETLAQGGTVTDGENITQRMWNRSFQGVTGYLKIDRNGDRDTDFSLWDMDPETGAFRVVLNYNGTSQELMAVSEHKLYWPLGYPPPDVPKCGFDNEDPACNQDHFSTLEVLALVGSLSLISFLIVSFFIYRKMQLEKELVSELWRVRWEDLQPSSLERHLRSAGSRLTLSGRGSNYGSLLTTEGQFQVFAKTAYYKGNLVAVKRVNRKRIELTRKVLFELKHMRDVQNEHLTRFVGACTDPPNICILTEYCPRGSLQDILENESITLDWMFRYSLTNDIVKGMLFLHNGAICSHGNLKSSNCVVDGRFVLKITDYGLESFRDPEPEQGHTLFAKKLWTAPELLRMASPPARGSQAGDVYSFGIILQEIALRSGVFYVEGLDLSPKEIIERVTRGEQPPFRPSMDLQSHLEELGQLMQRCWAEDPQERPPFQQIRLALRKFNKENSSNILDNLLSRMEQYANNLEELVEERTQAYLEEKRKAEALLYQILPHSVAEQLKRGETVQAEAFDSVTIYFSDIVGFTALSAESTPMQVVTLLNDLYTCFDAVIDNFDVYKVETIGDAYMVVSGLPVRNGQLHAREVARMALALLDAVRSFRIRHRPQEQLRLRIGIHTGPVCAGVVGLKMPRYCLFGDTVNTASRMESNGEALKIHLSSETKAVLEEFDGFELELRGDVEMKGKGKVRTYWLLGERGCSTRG
In words: cell-based or functional assay.

B1: Example 13 (peptide)
peptide: {C20 diacid}-[γGlu]EKEKEKGSLRRSSCF[4Pal]GRIDRIGAQSGLGCNSFRY-NH2
modifications: disulfide 15-31
SMILES: CC[C@H](C)[C@@H]1NC(=O)[C@H](CCCNC(=N)N)NC(=O)[C@H](CC(=O)O)NC(=O)[C@H]([C@@H](C)CC)NC(=O)[C@H](CCCNC(=N)N)NC(=O)CNC(=O)[C@H](Cc2ccncc2)NC(=O)[C@H](Cc2ccccc2)NC(=O)[C@@H](NC(=O)[C@H](CO)NC(=O)[C@H](CO)NC(=O)[C@H](CCCNC(=N)N)NC(=O)[C@H](CCCNC(=N)N)NC(=O)[C@H](CC(C)C)NC(=O)[C@H](CO)NC(=O)CNC(=O)[C@H](CCCCN)NC(=O)[C@H](CCC(=O)O)NC(=O)[C@H](CCCCN)NC(=O)[C@H](CCC(=O)O)NC(=O)[C@H](CCCCN)NC(=O)[C@H](CCC(=O)O)NC(=O)CC[C@H](NC(=O)CCCCCCCCCCCCCCCCCCC(=O)O)C(=O)O)CSSC[C@@H](C(=O)N[C@@H](CC(N)=O)C(=O)N[C@@H](CO)C(=O)N[C@@H](Cc2ccccc2)C(=O)N[C@@H](CCCNC(=N)N)C(=O)N[C@@H](Cc2ccc(O)cc2)C(N)=O)NC(=O)CNC(=O)[C@H](CC(C)C)NC(=O)CNC(=O)[C@H](CO)NC(=O)[C@H](CCC(N)=O)NC(=O)[C@H](C)NC(=O)CNC1=O
As for B1, in the test with human NPRA, the “cGMP Assay (EC50, pM) w/BSA” value amounted to 145000 pM and the “cGMP Assay (EC50, pM) w/Casein” value was determined as 1920 pM. In the test with rat NPRA, the “cGMP Assay (EC50, pM) w/BSA” value is 24000 pM and the “cGMP Assay (EC50, pM) w/Casein” value amounted to 241 pM.

B2: Example 9 (peptide)
peptide: {C20 diacid}-[γGlu]EKEKEKGSLRRSSCFGGRIDRIGAQSGLGCNSFR[4Pal]-NH2
modifications: disulfide 15-31
SMILES: CC[C@H](C)[C@@H]1NC(=O)[C@H](CCCNC(=N)N)NC(=O)[C@H](CC(=O)O)NC(=O)[C@H]([C@@H](C)CC)NC(=O)[C@H](CCCNC(=N)N)NC(=O)CNC(=O)CNC(=O)[C@H](Cc2ccccc2)NC(=O)[C@@H](NC(=O)[C@H](CO)NC(=O)[C@H](CO)NC(=O)[C@H](CCCNC(=N)N)NC(=O)[C@H](CCCNC(=N)N)NC(=O)[C@H](CC(C)C)NC(=O)[C@H](CO)NC(=O)CNC(=O)[C@H](CCCCN)NC(=O)[C@H](CCC(=O)O)NC(=O)[C@H](CCCCN)NC(=O)[C@H](CCC(=O)O)NC(=O)[C@H](CCCCN)NC(=O)[C@H](CCC(=O)O)NC(=O)CC[C@H](NC(=O)CCCCCCCCCCCCCCCCCCC(=O)O)C(=O)O)CSSC[C@@H](C(=O)N[C@@H](CC(N)=O)C(=O)N[C@@H](CO)C(=O)N[C@@H](Cc2ccccc2)C(=O)N[C@@H](CCCNC(=N)N)C(=O)N[C@@H](Cc2ccncc2)C(N)=O)NC(=O)CNC(=O)[C@H](CC(C)C)NC(=O)CNC(=O)[C@H](CO)NC(=O)[C@H](CCC(N)=O)NC(=O)[C@H](C)NC(=O)CNC1=O
For the molecule B2, the “cGMP Assay (EC50, pM) w/BSA” value was found to be 100000 pM with human NPRA and 46700 pM with rat NPRA. For the same molecule, the “cGMP Assay (EC50, pM) w/Casein” value came out at 1870 pM in the test with human NPRA and 509 pM with rat NPRA.

B3: Example 11 (peptide)
peptide: XEKEKEKGSXRRSSCFGGRIDRIGAQSGLGCNSFRY
modifications: HOOC-(CH2)18-CO-(γGlu)-EKEKEKGS-4Pal-RRSS[CFGGRIDRIGAQSGLGC]NSFRY-NH2; disulfide linkage between the bracketed Cys
B3: in the test with human NPRA, the “cGMP Assay (EC50, pM) w/BSA” value worked out at 24400 pM and the “cGMP Assay (EC50, pM) w/Casein” value was 1020 pM. Also, in the test with rat NPRA, the “cGMP Assay (EC50, pM) w/BSA” value is 24700 pM and the “cGMP Assay (EC50, pM) w/Casein” value came to 242 pM.

B4: Example 12 (peptide)
peptide: {C20 diacid}-[γGlu]EKEKEKGSLRRSSCFGGRIDRIGA[4Pal]SGLGCNSFR[4Pal]-NH2
modifications: disulfide 15-31
SMILES: CC[C@H](C)[C@@H]1NC(=O)[C@H](CCCNC(=N)N)NC(=O)[C@H](CC(=O)O)NC(=O)[C@H]([C@@H](C)CC)NC(=O)[C@H](CCCNC(=N)N)NC(=O)CNC(=O)CNC(=O)[C@H](Cc2ccccc2)NC(=O)[C@@H](NC(=O)[C@H](CO)NC(=O)[C@H](CO)NC(=O)[C@H](CCCNC(=N)N)NC(=O)[C@H](CCCNC(=N)N)NC(=O)[C@H](CC(C)C)NC(=O)[C@H](CO)NC(=O)CNC(=O)[C@H](CCCCN)NC(=O)[C@H](CCC(=O)O)NC(=O)[C@H](CCCCN)NC(=O)[C@H](CCC(=O)O)NC(=O)[C@H](CCCCN)NC(=O)[C@H](CCC(=O)O)NC(=O)CC[C@H](NC(=O)CCCCCCCCCCCCCCCCCCC(=O)O)C(=O)O)CSSC[C@@H](C(=O)N[C@@H](CC(N)=O)C(=O)N[C@@H](CO)C(=O)N[C@@H](Cc2ccccc2)C(=O)N[C@@H](CCCNC(=N)N)C(=O)N[C@@H](Cc2ccncc2)C(N)=O)NC(=O)CNC(=O)[C@H](CC(C)C)NC(=O)CNC(=O)[C@H](CO)NC(=O)[C@H](Cc2ccncc2)NC(=O)[C@H](C)NC(=O)CNC1=O
For B4, the “cGMP Assay (EC50, pM) w/BSA” value with human NPRA was determined as 109000 pM; with rat NPRA, 85500 pM. Besides, the “cGMP Assay (EC50, pM) w/Casein” value in the test with human NPRA came to 1520 pM; in the test with rat NPRA, 670 pM.

B5: Example 10 (peptide)
peptide: {C20 diacid}-[γGlu]EKEKEKGSLRRSSCFGGRIDRIGA[4Pal]SGLGCNSFRY-NH2
modifications: disulfide 15-31
SMILES: CC[C@H](C)[C@@H]1NC(=O)[C@H](CCCNC(=N)N)NC(=O)[C@H](CC(=O)O)NC(=O)[C@H]([C@@H](C)CC)NC(=O)[C@H](CCCNC(=N)N)NC(=O)CNC(=O)CNC(=O)[C@H](Cc2ccccc2)NC(=O)[C@@H](NC(=O)[C@H](CO)NC(=O)[C@H](CO)NC(=O)[C@H](CCCNC(=N)N)NC(=O)[C@H](CCCNC(=N)N)NC(=O)[C@H](CC(C)C)NC(=O)[C@H](CO)NC(=O)CNC(=O)[C@H](CCCCN)NC(=O)[C@H](CCC(=O)O)NC(=O)[C@H](CCCCN)NC(=O)[C@H](CCC(=O)O)NC(=O)[C@H](CCCCN)NC(=O)[C@H](CCC(=O)O)NC(=O)CC[C@H](NC(=O)CCCCCCCCCCCCCCCCCCC(=O)O)C(=O)O)CSSC[C@@H](C(=O)N[C@@H](CC(N)=O)C(=O)N[C@@H](CO)C(=O)N[C@@H](Cc2ccccc2)C(=O)N[C@@H](CCCNC(=N)N)C(=O)N[C@@H](Cc2ccc(O)cc2)C(N)=O)NC(=O)CNC(=O)[C@H](CC(C)C)NC(=O)CNC(=O)[C@H](CO)NC(=O)[C@H](Cc2ccncc2)NC(=O)[C@H](C)NC(=O)CNC1=O
As to B5, in the test with human NPRA, the “cGMP Assay (EC50, pM) w/BSA” value worked out at 64200 pM and the “cGMP Assay (EC50, pM) w/Casein” value was 1310 pM. Also, in the test with rat NPRA, the “cGMP Assay (EC50, pM) w/BSA” value amounted to 88400 pM and the “cGMP Assay (EC50, pM) w/Casein” value is 501 pM.

Source of the values: patent US20240174727A1, “LONG-ACTING NATRIURETIC PEPTIDES AND USES THEREOF” (Eli Lilly and Company, priority 2022, published 2024).
